Reference: article PMC2754851
Read-outs that look alike come from different tables or passages of the source.

Assays:
Experiment in all cases: pull-down
[1] = target: Doc1-4A APC/C (S. cerevisiae) (UniProt P53886)
[2] = target: Cdc27-A2 APC/C (APC/C with Cdc27 L579A) (S. cerevisiae) (UniProt P53886)
[3] = target: Doc1-4A APC/C (S. cerevisiae) (UniProt P53886); remark: listed apart in the source

Sequence of Doc1-4A APC/C (S. cerevisiae) (P53886 whole entry, looked up): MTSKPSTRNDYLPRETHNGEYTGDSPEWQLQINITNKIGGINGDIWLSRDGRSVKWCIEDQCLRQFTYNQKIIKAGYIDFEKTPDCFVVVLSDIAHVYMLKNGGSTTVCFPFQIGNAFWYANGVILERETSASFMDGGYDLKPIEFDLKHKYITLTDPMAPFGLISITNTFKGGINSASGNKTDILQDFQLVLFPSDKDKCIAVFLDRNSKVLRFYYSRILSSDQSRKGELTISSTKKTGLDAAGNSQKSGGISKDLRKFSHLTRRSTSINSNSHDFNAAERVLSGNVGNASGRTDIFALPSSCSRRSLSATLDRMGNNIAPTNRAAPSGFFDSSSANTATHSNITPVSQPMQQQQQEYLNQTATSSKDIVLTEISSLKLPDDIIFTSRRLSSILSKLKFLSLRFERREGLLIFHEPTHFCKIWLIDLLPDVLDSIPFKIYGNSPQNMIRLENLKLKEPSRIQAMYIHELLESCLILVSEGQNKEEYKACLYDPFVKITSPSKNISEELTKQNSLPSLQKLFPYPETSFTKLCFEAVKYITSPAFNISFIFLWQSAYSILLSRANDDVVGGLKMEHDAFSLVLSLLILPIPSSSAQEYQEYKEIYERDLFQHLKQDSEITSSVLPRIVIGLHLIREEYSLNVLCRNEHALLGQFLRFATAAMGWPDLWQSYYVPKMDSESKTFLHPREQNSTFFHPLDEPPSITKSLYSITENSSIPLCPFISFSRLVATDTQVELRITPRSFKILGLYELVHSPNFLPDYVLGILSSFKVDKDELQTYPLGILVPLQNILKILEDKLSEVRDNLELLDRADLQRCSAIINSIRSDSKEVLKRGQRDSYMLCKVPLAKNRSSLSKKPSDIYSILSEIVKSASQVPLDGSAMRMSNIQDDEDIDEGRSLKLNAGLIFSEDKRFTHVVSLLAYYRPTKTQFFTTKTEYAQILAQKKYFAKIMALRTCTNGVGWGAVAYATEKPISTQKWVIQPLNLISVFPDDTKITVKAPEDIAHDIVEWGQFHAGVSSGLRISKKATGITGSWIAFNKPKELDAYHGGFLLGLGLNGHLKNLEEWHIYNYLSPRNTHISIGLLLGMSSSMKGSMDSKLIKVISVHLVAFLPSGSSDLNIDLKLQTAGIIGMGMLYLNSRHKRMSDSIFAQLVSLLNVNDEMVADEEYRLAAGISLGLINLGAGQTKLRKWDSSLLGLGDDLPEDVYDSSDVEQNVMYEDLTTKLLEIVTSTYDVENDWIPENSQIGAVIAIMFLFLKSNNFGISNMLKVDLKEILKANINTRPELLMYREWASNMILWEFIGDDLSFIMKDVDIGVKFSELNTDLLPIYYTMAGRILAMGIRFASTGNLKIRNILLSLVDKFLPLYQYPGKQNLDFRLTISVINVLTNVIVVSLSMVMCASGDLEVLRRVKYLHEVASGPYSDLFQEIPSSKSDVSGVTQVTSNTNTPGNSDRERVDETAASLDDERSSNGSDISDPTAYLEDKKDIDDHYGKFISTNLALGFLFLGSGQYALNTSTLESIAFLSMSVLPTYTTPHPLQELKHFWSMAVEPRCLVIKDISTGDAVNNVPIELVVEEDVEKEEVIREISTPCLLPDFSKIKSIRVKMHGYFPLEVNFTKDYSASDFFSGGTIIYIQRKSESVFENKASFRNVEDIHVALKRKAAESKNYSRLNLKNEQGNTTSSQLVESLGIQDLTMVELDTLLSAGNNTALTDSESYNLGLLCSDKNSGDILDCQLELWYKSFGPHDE

B1: in vitro translated Cdh1 (natural protein)
chain: MSTNLNPFMNNTPSSSPLKGSESKRVSKRPISSSSSASLLSSPSRRSRPSTVYGDRYIPSRTDIDFNSIVSISSMASVPALNPSSTEDQVEYQKERQAHETYNTLLKNELFGEMLSKDTVGSESSIDRIKNTRPSTRGNVHAENTTRHGYELERVSTPPPEAAGLEEFSPHSTPVTPRRLFTSQQDEITRPSSNSVRGASLLTYQQRKGRRLSAASLLQSQFFDSMSPVRPDSKQLLLSPGKQFRQIAKVPYRVLDAPSLADDFYYSLIDWSSTDVLAVALGKSIFLTDNNTGDVVHLCDTENEYTSLSWIGAGSHLAVGQANGLVEIYDVMKRKCIRTLSGHIDRVACLSWNNHVLTSGSRDHRILHRDVRMPDPFFETIESHTQEVCGLKWNVADNKLASGGNDNVVHVYEGTSKSPILTFDEHKAAVKAMAWSPHKRGVLATGGGTADRRLKIWNVNTSIKMSDIDSGSQICNMVWSKNTNELVTSHGYSKYNLTLWDCNSMDPIAILKGHSFRVLHLTLSNDGTTVVSGAGDETLRYWKLFDKPKAKVQPNSLIFDAFNQIR
modifications: 35S label
For B1, the half-time of dissociation [1] was 20 min, the half-time of dissociation [2] was 10 min and the koff [2] was 0.0011 s⁻¹. For the same binder, the half-time of dissociation [3] was 22 min.
